This note sets out measurements from article PMC10244618.

The chains are these.
B1: NF2 (merlin) isoform 7, human, full length (507 aa, lacks exons 2-3 = isoform-1 residues 39-121; exon-16 C-terminus), P35240-4 (parent)
chain: MAGAIASRMSFSSLKRKQPKTFTVRIVTMDAEMEFNCEVKKQILDEKIYCPPEASVLLASYAVQAKYGDYDPSVHKRGFLAQEELLPKRVINLYQMTPEMWEERITAWYAEHRGRARDEAEMEYLKIAQDLEMYGVNYFAIRNKKGTELLLGVDALGLHIYDPENRLTPKISFPWNEIRNISYSDKEFTIKPLDKKIDVFKFNSSKLRVNKLILQLCIGNHDLFMRRRKADSLEVQQMKAQAREEKARKQMERQRLAREKQMREEAERTRDELERRLLQMKEEATMANEALMRSEETADLLAEKAQITEEEAKLLAQKAAEAEQEMQRIKATAIRTEEEKRLMEQKVLEAEVLALKMAEESERRAKEADQLKQDLQEAREAERRAKQKLLEIATKPTYPPMNPIPAPLPPDIPSFNLIGDSLSFDFKDTDMKRLSMEIEKEKVEYMEKSKHLQEQLNELKTEIEALKLKERETALDILHNENSDRGGSSKHNTIKKPQAQGRRPICI

The variants in the test derive from B1. Put plainly: reverse yeast two-hybrid deep mutational scan (rY2H-seq): NF2 isoform 7 mutant library as bait mated with wild-type prey strains; selection on medium lacking adenine for non-interacting pairs; NextSeq paired-end sequencing; enrichment vs …. Particulars: yeast diploids after mating (RBait_S3 x RPrey_S3), 30 °C, selection for reporter genes on NB agar, HIGHER = WEAKER BINDING (the opposite of display enrichments): higher = stronger loss of interaction: reverse Y2H selects yeast in which bait and prey do NOT interact (growth without adenine), so a …, hits-only table, scale: rY2H score, numbering: uniprot, sequence starts at 1.

[1] abbreviates: with EMILIN1 (elastin microfibril interfacer 1), Q9Y6C2, human ABL2 co-expressed as the kinase-dead K35M mutant ….
[2] abbreviates: with EMILIN1 (elastin microfibril interfacer 1), Q9Y6C2, human tyrosine kinase ABL2 co-expressed as the active kinase ….
[3] abbreviates: with KDM1A (lysine-specific histone demethylase 1A; the table's label AOF2 is a gene synonym of KDM1A), O60341, human ABL2 co-expressed as the kinase-dead K35M mutant ….
The mark [4] stands for this setting: with NF2 C-terminal domain (wild type; homomeric NF2-NF2 interaction), P35240, human ABL2 co-expressed as the kinase-dead K35M mutant …, partner unresolved.
Where [5] appears, read: with KDM1A (lysine-specific histone demethylase 1A; the table's label AOF2 is a gene synonym of KDM1A), O60341, human tyrosine kinase ABL2 co-expressed as the active kinase ….
Setting [6] is: with PIK3R3 (phosphatidylinositol 3-kinase regulatory subunit gamma), Q92569, human tyrosine kinase ABL2 co-expressed as the active kinase ….

“And” between values parts separate entries of the source, which are not always exact repeats. Equal values may be shown once.

Turning to R253K, the enrichment is, setting by setting: under setting [1], 5.53; under setting [2], 10.6; under setting [3], 6.44 and 7.44; under setting [4], 1.43.
A378K: the enrichment came to 5.56 under setting [1] and 4.21 under setting [4].
On to L58K, for which the enrichment under setting [1] stood at 3.39; the enrichment under setting [2] was 9.82 and 9.59; the enrichment under setting [3] was 7.46 and 14.7; the enrichment under setting [5] worked out at 7.51; the enrichment under setting [4] turned out to be 2.82.
For K388A, the enrichment is 1.75 under setting [1]; 2.24 and 3.28 under setting [3]; 1.43 and 2.22 under setting [5]; 3.36 under setting [6].
E265L: the enrichment is, setting by setting: under setting [1], 3.19; under setting [2], 3.78; under setting [3], 7.66; under setting [5], 4.47.
K15A: the enrichment runs as follows: under setting [1], 6.29; under setting [2], 6.35 and 3.55; under setting [3], 13.9; under setting [5], 2.57; under setting [6], 7.57.
Take R335K: the enrichment reads like this: under setting [1], 3.27; under setting [2], 2.33; under setting [3], 4.54 and 2.35; under setting [5], 3.19.
With E382K, the enrichment was 2.77 under setting [1]; 1.79 and 2.41 under setting [2]; 1.47 and 2.48 and 1.86 under setting [4].
Turning to E382G, under setting [1], the enrichment was 1.92.
Take K340E: the enrichment under setting [1] is 2.44 and 2.85; the enrichment under setting [2] is 4.17 and 3.5; the enrichment under setting [3] was 1.93 and 2.13; the enrichment under setting [5] was 1.71 and 2.96; the enrichment under setting [4] is 2.5 and 3.18; the enrichment under setting [6] is 5.
For the variant Q376L, the enrichment runs as follows: under setting [1], 2.08; under setting [4], 3.07.
With M431A, the enrichment was determined as 2.04 under setting [1] and 2.23 under setting [6].
Turning to M431E, the enrichment by setting is: under setting [1], 5.53; under setting [3], 3.66.
On to M431K, for which the enrichment under setting [1] was found to be 2.78.
R293E: the enrichment runs as follows: under setting [1], 2.19; under setting [2], 2.64.
Regarding V74C, the enrichment under setting [1] was found to be 2.3, the enrichment under setting [3] amounted to 2.58 and the enrichment under setting [6] amounted to 1.98.
Regarding L149A, the enrichment is 4.26 under setting [1]; 2.53 and 5.08 under setting [2]; 2.75 and 3.85 under setting [4]; 17.7 under setting [6].
Turning to K372E, the enrichment was 5.53 and 3.24 under setting [1]; 4.46 and 4.21 under setting [2]; 1.68 under setting [3].
Consider H491A, for which the enrichment came to 5.29 under setting [1] and 2.04 under setting [2].
For the variant H491K, the enrichment is, setting by setting: under setting [1], 1.7; under setting [4], 2.48.
As for A333T, the enrichment under setting [1] came to 2.19.
In the case of A240T, the enrichment under setting [2] worked out at 1.45.
As to R379A, the enrichment runs as follows: under setting [1], 2.05; under setting [2], 2.9; under setting [3], 2.
Turning to A368K, the enrichment is, setting by setting: under setting [1], 3.84 and 3.98; under setting [3], 10.5 and 10.2; under setting [4], 5.98.
As to K170R, the enrichment reads like this: under setting [1], 2.58; under setting [5], 3.72; under setting [6], 2.74.
Consider A406I, for which the enrichment reads like this: under setting [1], 8.86; under setting [2], 3.97; under setting [3], 6.43; under setting [6], 5.49.
With A406S, the enrichment by setting is: under setting [1], 7.48 and 4.82; under setting [2], 14.3; under setting [3], 11.8; under setting [5], 14.
Turning to E337T, the enrichment under setting [1] worked out at 5.26.
With E337K, the enrichment is, setting by setting: under setting [1], 2.71; under setting [2], 4.3 and 3.24; under setting [3], 2.29.
On to D476K, for which the enrichment under setting [1] was determined as 6.16, the enrichment under setting [2] is 4.37 and the enrichment under setting [6] was found to be 5.97.
In the case of A302E, the enrichment by setting is: under setting [1], 4.06; under setting [3], 2.49 and 5.
Regarding I404K, under setting [2], the enrichment turned out to be 1.59.
For the variant E274K, the enrichment under setting [1] turned out to be 1.67.
L353W: the enrichment was 1.51 under setting [1] and 1.6 under setting [3].
Take L353T: the enrichment under setting [1] was found to be 8.41.
Take L300E: the enrichment reads like this: under setting [1], 5.44; under setting [2], 5.18; under setting [4], 4.73 and 3.13.
Take P52E: the enrichment under setting [1] came out at 9.88.
Regarding A322E, the enrichment under setting [1] stood at 3.28 and the enrichment under setting [4] was found to be 2.97.
Turning to T332D, the enrichment by setting is: under setting [1], 4.98 and 1.87; under setting [2], 2.07.
Regarding T332L, the enrichment by setting is: under setting [1], 1.4; under setting [6], 2.31.
Regarding M343E, the enrichment by setting is: under setting [1], 2.88 and 3.18; under setting [2], 3.19; under setting [3], 3.76; under setting [5], 2.07 and 4.72; under setting [6], 1.45.
Take M343A: the enrichment runs as follows: under setting [1], 2.55 and 1.66; under setting [2], 2.55 and 2.14.
In the case of M343K, the enrichment reads like this: under setting [1], 3.5; under setting [2], 1.81; under setting [5], 3.6.
Turning to K490E, the enrichment under setting [1] amounted to 5.91.
Still for that read-out and setting: to E338R belongs 2.37.
E339L: the enrichment came to 1.74 under setting [1] and 1.65 under setting [4].
On to E339T, for which the enrichment runs as follows: under setting [1], 3.93; under setting [2], 5.99; under setting [3], 2.02; under setting [4], 2.08.
In the case of E339A, the enrichment turned out to be 2.51 under setting [1] and 1.94 under setting [2].
Turning to A316S, the enrichment under setting [1] was determined as 3.61.
